Paper PMC9451086

Target: Importin-α1 (UniProt P52292)
Assay: proximity ligation assay
Settings: PLC3 cells electroporated with HEV-p6 RNA, 18 h.p.e; 12 fields of cells, mean ± S.D.; parent: est. 5.3; read off a plot

| Substance | response [spot/cell] |
| --- | --- |
| HEV ORF2 capsid protein, wild type (genotype 3 Kernow C-1 p6 strain) R28A; R29A; R30A; R32A; R33A | 1.1 |
| HEV ORF2 capsid protein, wild type (genotype 3 Kernow C-1 p6 strain) P25R; S26R; G27R | 4.8 |
